Reference: the DeepSol protein solubility set

experiment: soluble on expression in E. coli; label from the status in PepcDB or PDB records

Row | Sequence | soluble on expression in E. coli
1 | MAHHHHHHMIVVSSPKATNYDEWEKQLKARRIIMNCPDEMVVKAMCAWMKRGLEPDKQVECWNMVEKHMEKVGPIPRHIFDEDDYIDRMSAVDDALLSIKPTDVGEHFTLRGSKLWYSEVPSHKLLKVVREITEKGAEVFLNASISADIGFRIADRLEKEMATKDFLLLILRWRDALVSHALEKLGLRAFMYGELVIAIVEGLKELPPPSPSKPRSSVLKVNYQGYPTRAVGLKELQGGVTRIPMEYRVLYIPKVENFPLVDGFFFVDSPRKTLVGLQMTTASAHHKITSTVNLFNERMAEYFNGWEELSRDLSWEMIYIQHALSKEISKWQRCGPVNTENLSDTEKEIVAFWDGRVHQYQFVLTPDFVSKIREMRIQQSWGKGIGKKVREIIGEQSAFRFGKYIGKYFNDFYVCVCAYGV | not soluble
2 | MRGSHHHHHHGSVEVQVLIENVVFARNFVAEHGLSLLLKKGNKEIVVDTGQSENFIKNCGLMGIDVGRIKKVVLTHGHYDHIGGLKGLLERNPEVKIYTHKEILNKKYAMRKGGQFEEIGFDLSFYEKYKNNFVLIDKDAEIEEGFYVITNTDITYDNEFTTKNFFVEKEGKRIPDKFLDEVFVVVKEEDGINVVTGCSHAGILNILETARNRFGVSYIKSLIGGFHLRGMEEEKVKDIARKIEEYGVKKVLTGHCTGIDEYGFLKSVLKDKISYLTTSSSIVV | soluble
3 | MGQAPDRPHLETFLARLRAGAKILELGCGGGQDSEYMLSAGFDVHPTDGTPDIAKAAQARLGIPVRTLLFENIEDAALYDAVWANACLLHVPRLALPGIIGRIHTALKPGGVFYASFKAGEVEGRDTFGRYYNYPSKAWLEETYGQFAWTEVEIEARQGSGYDKLPTDWLHVTATKALEHHHHHH | not soluble
4 | GMSVPQRPHQFVLTLSCPSAAGQVAAVVGLLDRHRCYVDELTVFDDDLSARFFVRCVFHATDDADALRVDALRREFEPIAERFRMQWAIHDVAARPKVLIMVSKLEHCLADLLFRWKMGELKMDIVGIVSNHPDFAPLAAQHGLPFRHFPITADTKAQQEAQWLDVFETSGAELVILARYMQVLSPEASARLANRAINIHHSFLPGFKGAKPYHQAHARGVKLIGATAHFVTDDLDEGPIIEQVVERVDHSYRPEQLLAVGRDVECITLARAVKAFIERRVFLNGDRTVVFQ | soluble
5 | MTTFTHINSQGEANMVDVSAKAETVREARAEAIVTMSKETLSMIVEGKHHKGDVFATARIAGIQAAKRTWELIPLCHPLLLSKVEVNLEPLLETNQVRIQSLCKLTGKTGVEMEALTAASVAALTIYDMCKAVQKDIVIEHVRLLEKSGGKSGHFIAEEK | soluble
6 | MGSSHHHHHHSSGLVPRGSHMSRVTVLQSQLPAYNRLKTPYESELIATVKKLTTPGKGLLAADESIGSCTKRFQPIGLSNTEEHRRQYRALMLEAEGFEQYISGVILHDETVGQKASNGQTFPEYLTARGVVPGIKTDMGLCPLLEGAEGEQMTEGLDGYVKRASAYYKKGCRFCKWRNVYKIQNGTVSESAVRFNAETLARYAILSQMSGLVPIVEPEVMIDGKHDIDTCQRVSEHVWREVVAALQRHGVIWEGCLLKPNMVVPGAESGKTAAPEQVAHYTVMTLARTMPAMLPGVMFLSGGLSEVQASEYLNAINNSPLPRPYFLSFSYARALQSSALKAWGGKESGLAAGRRAFLHRARMNSMAQLGKYKRSDDDASSSSLYVKGNTY | soluble
7 | MGDELHVIVARSVNVTHKEPPVVPDEQRREMVGALKPVDEAHLGHSEDIFIPIERIEPDIIALGYDQHHDDEQLEAALSARGIDCDICRASPLETEAADRVLSTGRIIDRILDERS | not soluble
8 | MTIKLVATDMDGTFLDGNGRFDMDRLKSLLVSYKEKGIYFAVASGRGFLSLEKLFAGVRDDIIFIAENGSLVEYQGQDLYEATMSRDFYLATFEKLKTSPYVDINKLLLTGKKGSYVLDTVDETYLKVSQHYNENIQKVASLEDITDDIFKFTTNFTEETLEDGEAWVNENVPGVKAMTTGFESIDIVLDYVDKGVAIVELVKKLGITMDQVMAFGDNLNDLHMMQVVGHPVAPENARPEILELAKTVIGHHKERSVIAYMEGL | not soluble
9 | MKPRNINNSLPLQPLVPDQENKNKKNEEKSVNPVKITMGSGLNYIEQESLGGKYLTHDLSIKIADISEEIIQQAILSAMSIYKFSITDDLMSMAVNELIKLTKIENNVDLNKFTTICTDVLSPRVTRHNKEKNKRHSTLLKNPLFNFHLEHHHHHH | soluble
